In publication PMC10277290:
Residue numbers refer to the chain shown, from its start. Numbers in names are those of the source.

B1: MdhBs (NAD+-dependent methanol dehydrogenase) (Geobacillus stearothermophilus) (protein)
chain: MKAAVVNEFKKALEIKEVERPKLEEGEVLVKIEACGVCHTDLHAAHGDWPIKPKLPLIPGHEGVGIVVEVAKGVKSIKVGDRVGIPWLYSACGECEYCLTGQETLCPHQLNGGYSVDGGYAEYCKAPADYVAKIPDNLDPVEVAPILCAGVTTYKALKVSGARPGEWVAIYGIGGLGHIALQYAKAMGLNVVAVDISDEKSKLAKDLGADIAINGLKEDPVKAIHDQVGGVHAAISVAVNKKAFEQAYQSVKRGGTLVVVGLPNADLPIPIFDTVLNGVSVKGSIVGTRKDMQEALDFAARGKVRPIVETAELEEINEVFERMEKGKINGRIVLKLKED
B2: MdhBs (NAD+-dependent methanol dehydrogenase) (Geobacillus stearothermophilus; E309K/N214D) (protein)
chain: B1 chain with N214D, E309K
B3: MdhBs (NAD+-dependent methanol dehydrogenase) (Geobacillus stearothermophilus; K72T/T153P) (protein)
chain: B1 chain with K72T, T153P

Substrate: CO
Test: purified protein
Assay type: biochemical, Geobacillus stearothermophilus
Settings: NAD+ 0.5 mM, Mg2+ 5 mM, PBS pH 7.4, 37 °C

| Protein | Km [mM] | Vmax [µmol/min/mg] | kcat [s⁻¹] | kcat/Km [M⁻¹ s⁻¹] |
| --- | --- | --- | --- | --- |
| B1 | 30.03 ± 4.63 | 0.0115 | 0.007 ± 0.001 | 0.233 |
| B2 | 18.19 ± 3.27 | 0.0238 | 0.013 ± 0.001 | 0.715 |
| B3 | 9.84 ± 0.67 | 0.0288 | 0.015 ± 0.001 | 1.52 |
